This is an account of results in the supplement of paper PMC12338614.

± gives the uncertainty stated by the source.

The chains are these.
B1: library; numbered along this chain (parent)
chain: MEVVDPQQLGMFTEGELMSVGMDTFIHRIDSTEVIYQPRRKRAKLIGKYLMGDLLGEGSYGKVKEVLDSETLCRRAVKILKKKKLRRIPNGEANVKKEIQLLRRLRHKNVIQLVDVLYNEEKQKMYMVMEYCVCGMQEMLDSVPEKRFPVCQAHGYFCQLIDGLEYLHSQGIVHKDIKPGNLLLTTGGTLKISDLGVAEALHPFAADDTCRTSQGSPAFQPPEIANGLDTFSGFKVDIWSAGVTLYNITTGLYPFEGDNIYKLFENIGKGSYAIPGDCGPPLSDLLKGMLEYEPAKRFSIRQIRQHSWFRKKHPPAEAPVPIPPSPDTKDRWRSMTVVPYLEDLHGADEDEDLFDIEDDIIYTQDFTVPGQVPEEEASHNGQRRGLPKAVCMNGTEAAQLSTKSRAEGRAPNPARKACSASSKIRRLSACKQQ

The variants in this data set derive from B1. Briefly: STK11 functional score (HeLa growth suppression), rescaled enrichment; synonymous median = 1, nonsense median = 0 (normalised score). Conditions: with HeLa; variant type: missense. As to the method: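 Deep mutational scan (TileSeq/POPCode codon randomisation) of full-length codon-optimised STK11 cDNA integrated at a Bxb1 landing pad (AAVS1) in HeLa cells. Restoring functional STK11 suppresses HeLa proliferation. Variant frequencies were measured by NGS before and after about two weeks of growth. The error-corrected enrichment log-ratio was rescaled so that synonymous median = 1 and nonsense median = 0, scores above 1 were compressed, and codon-level and three biological replicate scores were combined; error is the bootstrapped standard error. Scale: synonymous median = 1, nonsense median = 0; below 0.5 = damaging.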
As for MEVVDPQQLGMFTEGELMSVGMDTFIHRIDSTEVIYQPRRKRAKLIGYYLMGDLLGEGSYGKVKEVLDSETLCRRAVKILKKKKLRRIPNGEANVKKEIQLLRRLRHKNVIQLVDVLYNEEKQKMYMVMEYCVCGMQEMLDSVPEKRFPVCQAHGYFCQLIDGLEYLHSQGIVHKDIKPGNLLLTTGGTLKISDLGVAEALHPFAADDTCRTSQGSPAFQPPEIANGLDTFSGFKVDIWSAGVTLYNITTGLYPFEGDNIYKLFENIGKGSYAIPGDCGPPLSDLLKGMLEYEPAKRFSIRQIRQHSWFRKKHPPAEAPVPIPPSPDTKDRWRSMTVVPYLEDLHGADEDEDLFDIEDDIIYTQDFTVPGQVPEEEASHNGQRRGLPKAVCMNGTEAAQLSTKSRAEGRAPNPARKACSASSKIRRLSACKQQ [K48Y], the STK11 functional score came to 1.4 ± 0.13. Next, MEVVDPQQLGMFTEGELMSVGMDTFIHRIDSTEVIYQPRRKRAKLIGWYLMGDLLGEGSYGKVKEVLDSETLCRRAVKILKKKKLRRIPNGEANVKKEIQLLRRLRHKNVIQLVDVLYNEEKQKMYMVMEYCVCGMQEMLDSVPEKRFPVCQAHGYFCQLIDGLEYLHSQGIVHKDIKPGNLLLTTGGTLKISDLGVAEALHPFAADDTCRTSQGSPAFQPPEIANGLDTFSGFKVDIWSAGVTLYNITTGLYPFEGDNIYKLFENIGKGSYAIPGDCGPPLSDLLKGMLEYEPAKRFSIRQIRQHSWFRKKHPPAEAPVPIPPSPDTKDRWRSMTVVPYLEDLHGADEDEDLFDIEDDIIYTQDFTVPGQVPEEEASHNGQRRGLPKAVCMNGTEAAQLSTKSRAEGRAPNPARKACSASSKIRRLSACKQQ [K48W]: 0.798 ± 0.087. For MEVVDPQQLGMFTEGELMSVGMDTFIHRIDSTEVIYQPRRKRAKLIGKVLMGDLLGEGSYGKVKEVLDSETLCRRAVKILKKKKLRRIPNGEANVKKEIQLLRRLRHKNVIQLVDVLYNEEKQKMYMVMEYCVCGMQEMLDSVPEKRFPVCQAHGYFCQLIDGLEYLHSQGIVHKDIKPGNLLLTTGGTLKISDLGVAEALHPFAADDTCRTSQGSPAFQPPEIANGLDTFSGFKVDIWSAGVTLYNITTGLYPFEGDNIYKLFENIGKGSYAIPGDCGPPLSDLLKGMLEYEPAKRFSIRQIRQHSWFRKKHPPAEAPVPIPPSPDTKDRWRSMTVVPYLEDLHGADEDEDLFDIEDDIIYTQDFTVPGQVPEEEASHNGQRRGLPKAVCMNGTEAAQLSTKSRAEGRAPNPARKACSASSKIRRLSACKQQ [Y49V], the STK11 functional score stood at 0.956 ± 0.099. Next, MEVVDPQQLGMFTEGELMSVGMDTFIHRIDSTEVIYQPRRKRAKLIGKQLMGDLLGEGSYGKVKEVLDSETLCRRAVKILKKKKLRRIPNGEANVKKEIQLLRRLRHKNVIQLVDVLYNEEKQKMYMVMEYCVCGMQEMLDSVPEKRFPVCQAHGYFCQLIDGLEYLHSQGIVHKDIKPGNLLLTTGGTLKISDLGVAEALHPFAADDTCRTSQGSPAFQPPEIANGLDTFSGFKVDIWSAGVTLYNITTGLYPFEGDNIYKLFENIGKGSYAIPGDCGPPLSDLLKGMLEYEPAKRFSIRQIRQHSWFRKKHPPAEAPVPIPPSPDTKDRWRSMTVVPYLEDLHGADEDEDLFDIEDDIIYTQDFTVPGQVPEEEASHNGQRRGLPKAVCMNGTEAAQLSTKSRAEGRAPNPARKACSASSKIRRLSACKQQ [Y49Q]: 0.0367 ± 0.35; MEVVDPQQLGMFTEGELMSVGMDTFIHRIDSTEVIYQPRRKRAKLIGKCLMGDLLGEGSYGKVKEVLDSETLCRRAVKILKKKKLRRIPNGEANVKKEIQLLRRLRHKNVIQLVDVLYNEEKQKMYMVMEYCVCGMQEMLDSVPEKRFPVCQAHGYFCQLIDGLEYLHSQGIVHKDIKPGNLLLTTGGTLKISDLGVAEALHPFAADDTCRTSQGSPAFQPPEIANGLDTFSGFKVDIWSAGVTLYNITTGLYPFEGDNIYKLFENIGKGSYAIPGDCGPPLSDLLKGMLEYEPAKRFSIRQIRQHSWFRKKHPPAEAPVPIPPSPDTKDRWRSMTVVPYLEDLHGADEDEDLFDIEDDIIYTQDFTVPGQVPEEEASHNGQRRGLPKAVCMNGTEAAQLSTKSRAEGRAPNPARKACSASSKIRRLSACKQQ [Y49C]: 1.01 ± 0.28; MEVVDPQQLGMFTEGELMSVGMDTFIHRIDSTEVIYQPRRKRAKLIGKPLMGDLLGEGSYGKVKEVLDSETLCRRAVKILKKKKLRRIPNGEANVKKEIQLLRRLRHKNVIQLVDVLYNEEKQKMYMVMEYCVCGMQEMLDSVPEKRFPVCQAHGYFCQLIDGLEYLHSQGIVHKDIKPGNLLLTTGGTLKISDLGVAEALHPFAADDTCRTSQGSPAFQPPEIANGLDTFSGFKVDIWSAGVTLYNITTGLYPFEGDNIYKLFENIGKGSYAIPGDCGPPLSDLLKGMLEYEPAKRFSIRQIRQHSWFRKKHPPAEAPVPIPPSPDTKDRWRSMTVVPYLEDLHGADEDEDLFDIEDDIIYTQDFTVPGQVPEEEASHNGQRRGLPKAVCMNGTEAAQLSTKSRAEGRAPNPARKACSASSKIRRLSACKQQ [Y49P]: 0.101 ± 0.089.

As to MEVVDPQQLGMFTEGELMSVGMDTFIHRIDSTEVIYQPRRKRAKLIGKFLMGDLLGEGSYGKVKEVLDSETLCRRAVKILKKKKLRRIPNGEANVKKEIQLLRRLRHKNVIQLVDVLYNEEKQKMYMVMEYCVCGMQEMLDSVPEKRFPVCQAHGYFCQLIDGLEYLHSQGIVHKDIKPGNLLLTTGGTLKISDLGVAEALHPFAADDTCRTSQGSPAFQPPEIANGLDTFSGFKVDIWSAGVTLYNITTGLYPFEGDNIYKLFENIGKGSYAIPGDCGPPLSDLLKGMLEYEPAKRFSIRQIRQHSWFRKKHPPAEAPVPIPPSPDTKDRWRSMTVVPYLEDLHGADEDEDLFDIEDDIIYTQDFTVPGQVPEEEASHNGQRRGLPKAVCMNGTEAAQLSTKSRAEGRAPNPARKACSASSKIRRLSACKQQ [Y49F], the STK11 functional score amounted to 1.12 ± 0.3. In the case of MEVVDPQQLGMFTEGELMSVGMDTFIHRIDSTEVIYQPRRKRAKLIGKHLMGDLLGEGSYGKVKEVLDSETLCRRAVKILKKKKLRRIPNGEANVKKEIQLLRRLRHKNVIQLVDVLYNEEKQKMYMVMEYCVCGMQEMLDSVPEKRFPVCQAHGYFCQLIDGLEYLHSQGIVHKDIKPGNLLLTTGGTLKISDLGVAEALHPFAADDTCRTSQGSPAFQPPEIANGLDTFSGFKVDIWSAGVTLYNITTGLYPFEGDNIYKLFENIGKGSYAIPGDCGPPLSDLLKGMLEYEPAKRFSIRQIRQHSWFRKKHPPAEAPVPIPPSPDTKDRWRSMTVVPYLEDLHGADEDEDLFDIEDDIIYTQDFTVPGQVPEEEASHNGQRRGLPKAVCMNGTEAAQLSTKSRAEGRAPNPARKACSASSKIRRLSACKQQ [Y49H], the STK11 functional score is 1.11 ± 0.48. MEVVDPQQLGMFTEGELMSVGMDTFIHRIDSTEVIYQPRRKRAKLIGKMLMGDLLGEGSYGKVKEVLDSETLCRRAVKILKKKKLRRIPNGEANVKKEIQLLRRLRHKNVIQLVDVLYNEEKQKMYMVMEYCVCGMQEMLDSVPEKRFPVCQAHGYFCQLIDGLEYLHSQGIVHKDIKPGNLLLTTGGTLKISDLGVAEALHPFAADDTCRTSQGSPAFQPPEIANGLDTFSGFKVDIWSAGVTLYNITTGLYPFEGDNIYKLFENIGKGSYAIPGDCGPPLSDLLKGMLEYEPAKRFSIRQIRQHSWFRKKHPPAEAPVPIPPSPDTKDRWRSMTVVPYLEDLHGADEDEDLFDIEDDIIYTQDFTVPGQVPEEEASHNGQRRGLPKAVCMNGTEAAQLSTKSRAEGRAPNPARKACSASSKIRRLSACKQQ [Y49M]: the STK11 functional score turned out to be 1.22 ± 0.82. Consider MEVVDPQQLGMFTEGELMSVGMDTFIHRIDSTEVIYQPRRKRAKLIGKRLMGDLLGEGSYGKVKEVLDSETLCRRAVKILKKKKLRRIPNGEANVKKEIQLLRRLRHKNVIQLVDVLYNEEKQKMYMVMEYCVCGMQEMLDSVPEKRFPVCQAHGYFCQLIDGLEYLHSQGIVHKDIKPGNLLLTTGGTLKISDLGVAEALHPFAADDTCRTSQGSPAFQPPEIANGLDTFSGFKVDIWSAGVTLYNITTGLYPFEGDNIYKLFENIGKGSYAIPGDCGPPLSDLLKGMLEYEPAKRFSIRQIRQHSWFRKKHPPAEAPVPIPPSPDTKDRWRSMTVVPYLEDLHGADEDEDLFDIEDDIIYTQDFTVPGQVPEEEASHNGQRRGLPKAVCMNGTEAAQLSTKSRAEGRAPNPARKACSASSKIRRLSACKQQ [Y49R], for which the STK11 functional score was 0.545 ± 0.19.

MEVVDPQQLGMFTEGELMSVGMDTFIHRIDSTEVIYQPRRKRAKLIGKSLMGDLLGEGSYGKVKEVLDSETLCRRAVKILKKKKLRRIPNGEANVKKEIQLLRRLRHKNVIQLVDVLYNEEKQKMYMVMEYCVCGMQEMLDSVPEKRFPVCQAHGYFCQLIDGLEYLHSQGIVHKDIKPGNLLLTTGGTLKISDLGVAEALHPFAADDTCRTSQGSPAFQPPEIANGLDTFSGFKVDIWSAGVTLYNITTGLYPFEGDNIYKLFENIGKGSYAIPGDCGPPLSDLLKGMLEYEPAKRFSIRQIRQHSWFRKKHPPAEAPVPIPPSPDTKDRWRSMTVVPYLEDLHGADEDEDLFDIEDDIIYTQDFTVPGQVPEEEASHNGQRRGLPKAVCMNGTEAAQLSTKSRAEGRAPNPARKACSASSKIRRLSACKQQ [Y49S]: the STK11 functional score came to 1 ± 0.28. Consider MEVVDPQQLGMFTEGELMSVGMDTFIHRIDSTEVIYQPRRKRAKLIGKILMGDLLGEGSYGKVKEVLDSETLCRRAVKILKKKKLRRIPNGEANVKKEIQLLRRLRHKNVIQLVDVLYNEEKQKMYMVMEYCVCGMQEMLDSVPEKRFPVCQAHGYFCQLIDGLEYLHSQGIVHKDIKPGNLLLTTGGTLKISDLGVAEALHPFAADDTCRTSQGSPAFQPPEIANGLDTFSGFKVDIWSAGVTLYNITTGLYPFEGDNIYKLFENIGKGSYAIPGDCGPPLSDLLKGMLEYEPAKRFSIRQIRQHSWFRKKHPPAEAPVPIPPSPDTKDRWRSMTVVPYLEDLHGADEDEDLFDIEDDIIYTQDFTVPGQVPEEEASHNGQRRGLPKAVCMNGTEAAQLSTKSRAEGRAPNPARKACSASSKIRRLSACKQQ [Y49I], for which the STK11 functional score was 1.24 ± 0.13.

As for MEVVDPQQLGMFTEGELMSVGMDTFIHRIDSTEVIYQPRRKRAKLIGKDLMGDLLGEGSYGKVKEVLDSETLCRRAVKILKKKKLRRIPNGEANVKKEIQLLRRLRHKNVIQLVDVLYNEEKQKMYMVMEYCVCGMQEMLDSVPEKRFPVCQAHGYFCQLIDGLEYLHSQGIVHKDIKPGNLLLTTGGTLKISDLGVAEALHPFAADDTCRTSQGSPAFQPPEIANGLDTFSGFKVDIWSAGVTLYNITTGLYPFEGDNIYKLFENIGKGSYAIPGDCGPPLSDLLKGMLEYEPAKRFSIRQIRQHSWFRKKHPPAEAPVPIPPSPDTKDRWRSMTVVPYLEDLHGADEDEDLFDIEDDIIYTQDFTVPGQVPEEEASHNGQRRGLPKAVCMNGTEAAQLSTKSRAEGRAPNPARKACSASSKIRRLSACKQQ [Y49D], the STK11 functional score turned out to be 0.131 ± 0.35. In the case of MEVVDPQQLGMFTEGELMSVGMDTFIHRIDSTEVIYQPRRKRAKLIGKLLMGDLLGEGSYGKVKEVLDSETLCRRAVKILKKKKLRRIPNGEANVKKEIQLLRRLRHKNVIQLVDVLYNEEKQKMYMVMEYCVCGMQEMLDSVPEKRFPVCQAHGYFCQLIDGLEYLHSQGIVHKDIKPGNLLLTTGGTLKISDLGVAEALHPFAADDTCRTSQGSPAFQPPEIANGLDTFSGFKVDIWSAGVTLYNITTGLYPFEGDNIYKLFENIGKGSYAIPGDCGPPLSDLLKGMLEYEPAKRFSIRQIRQHSWFRKKHPPAEAPVPIPPSPDTKDRWRSMTVVPYLEDLHGADEDEDLFDIEDDIIYTQDFTVPGQVPEEEASHNGQRRGLPKAVCMNGTEAAQLSTKSRAEGRAPNPARKACSASSKIRRLSACKQQ [Y49L], the STK11 functional score turned out to be 0.852 ± 0.22.
